Reference: publication PMC3971956

Assays:
Experiment in all cases: SAXS
AB = AB (human, UniProt P09874 1-232)
ABC = ABC (human, UniProt P09874 1-373)
PARP-1 full-length = PARP-1 full-length (human, UniProt P09874 1-1014)

Measured: binding result

Sequence of AB (P09874 1-232): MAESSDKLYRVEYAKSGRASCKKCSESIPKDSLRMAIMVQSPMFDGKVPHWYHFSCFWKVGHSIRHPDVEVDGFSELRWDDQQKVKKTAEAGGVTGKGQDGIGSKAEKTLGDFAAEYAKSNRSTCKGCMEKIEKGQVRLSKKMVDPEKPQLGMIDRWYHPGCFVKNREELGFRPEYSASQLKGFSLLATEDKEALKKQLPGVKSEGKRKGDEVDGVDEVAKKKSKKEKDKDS
Sequence of ABC (P09874 1-373): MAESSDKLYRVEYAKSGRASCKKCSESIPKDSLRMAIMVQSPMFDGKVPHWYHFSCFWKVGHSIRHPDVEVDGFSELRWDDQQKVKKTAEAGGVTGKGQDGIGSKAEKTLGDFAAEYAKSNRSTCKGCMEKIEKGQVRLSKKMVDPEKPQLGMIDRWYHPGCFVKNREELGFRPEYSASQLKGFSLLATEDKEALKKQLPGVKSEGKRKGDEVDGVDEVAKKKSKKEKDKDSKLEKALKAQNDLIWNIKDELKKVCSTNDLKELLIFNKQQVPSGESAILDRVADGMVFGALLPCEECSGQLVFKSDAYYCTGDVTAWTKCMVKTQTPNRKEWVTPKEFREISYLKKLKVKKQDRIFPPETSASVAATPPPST
Sequence of PARP-1 full-length (P09874 whole entry): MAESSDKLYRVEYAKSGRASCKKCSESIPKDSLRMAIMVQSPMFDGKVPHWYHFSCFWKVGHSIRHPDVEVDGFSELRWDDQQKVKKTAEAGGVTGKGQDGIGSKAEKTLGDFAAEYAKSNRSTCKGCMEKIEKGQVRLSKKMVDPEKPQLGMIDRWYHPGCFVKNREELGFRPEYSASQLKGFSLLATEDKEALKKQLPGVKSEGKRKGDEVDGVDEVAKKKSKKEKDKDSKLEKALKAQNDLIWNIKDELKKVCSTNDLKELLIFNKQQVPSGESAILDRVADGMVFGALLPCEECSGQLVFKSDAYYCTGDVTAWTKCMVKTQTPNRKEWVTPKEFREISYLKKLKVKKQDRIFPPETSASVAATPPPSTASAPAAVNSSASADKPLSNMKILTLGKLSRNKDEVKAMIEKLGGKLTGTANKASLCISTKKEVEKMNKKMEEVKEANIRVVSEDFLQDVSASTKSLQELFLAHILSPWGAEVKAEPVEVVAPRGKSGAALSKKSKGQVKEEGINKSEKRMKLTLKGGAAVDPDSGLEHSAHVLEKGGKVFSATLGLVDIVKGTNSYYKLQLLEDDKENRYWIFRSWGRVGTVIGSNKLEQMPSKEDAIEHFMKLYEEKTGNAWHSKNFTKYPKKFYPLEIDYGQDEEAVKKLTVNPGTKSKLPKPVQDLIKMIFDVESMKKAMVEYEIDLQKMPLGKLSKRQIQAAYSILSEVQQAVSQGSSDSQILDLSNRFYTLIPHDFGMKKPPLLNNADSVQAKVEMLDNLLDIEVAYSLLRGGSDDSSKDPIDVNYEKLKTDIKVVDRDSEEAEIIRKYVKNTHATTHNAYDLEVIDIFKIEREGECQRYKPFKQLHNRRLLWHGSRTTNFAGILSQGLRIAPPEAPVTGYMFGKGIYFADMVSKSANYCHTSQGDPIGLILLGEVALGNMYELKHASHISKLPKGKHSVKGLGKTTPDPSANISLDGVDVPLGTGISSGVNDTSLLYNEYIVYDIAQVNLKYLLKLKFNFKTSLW

B1: 8-mer DNA (dsDNA)
DNA 1: GGAATTCC
DNA 2: GGAATTCC
binds: all assays above
